From US7994123B2, “Hybrid proteins with ErbB4 extracellular domain and neuregulin heparin-binding domain for targeting” (Wayne State University, priority 2004, dated 2011)

Tested on: malignant masses (carcinomas, sarcomas, gliomas and medulloblastomas)
Assay: Anti-tumor effects in human patients
Assay type: in vivo
Text: All patients to be treated have histologically confirmed malignant masses confirmed by biopsy or cytology are entered. Malignant diseases including carcinomas, sarcomas, gliomas and medulloblastomas. […] Patients in all stages of malignant disease involving any organ system are included. Staging describes both tumor and host, including organ of origin of the tumor, histologic type, histologic grade, extent of tumor size, site of metastases and functional status of the patient. For a general classification includes the known ranges of Stage 1 (localized disease) to Stage 4 (widespread metastases), see Abraham J et al., Bethesda Handbook of Clinical Oncology, Lippincott, Williams & Wilkins, Philadelphia, Pa., 2001 (or a more recent edition). Patient history is obtained and physical examination performed along with conventional tests of cardiovascular and pulmonary function and appropriate radiologic procedures. The malignant masses are visible on x-ray or CT scan and/or are measurable with calipers. They have not been undergoing any other anticancer treatment for at least one month and have a clinical KPS of at least 50.
HBD-S-B4 is administered intravenously in doses of 0.01-100 μg/kg intratumorally once every 2-7 days. Patient Evaluation: Assessment of response of the tumor to the therapy is made once per week during therapy and 30 days thereafter using CT or x-ray visualization. Depending on the response to treatment, side effects, and the health status of the patient, treatment is terminated or prolonged from the standard protocol given above. Tumor response criteria are those established by the WHO and RECIST (Response Evaluation Criteria in Solid Tumors) summarized below (e.g., Abraham et al., supra)
The efficacy of the therapy in a patient population is evaluated using conventional statistical methods, including, for example, the Chi Square test or Fisher's exact test. Long-term and short term changes in measurements are evaluated separately.

B1: HBD-S-B4: prototypical fusion protein of NRG HBD, spacer and erbB4 ECD (SEQ ID NO:14) (protein)
chain: QKMKPATGLWVWVSLLVAAGTVQPSDSQSGYKKKERGSGKKPESAAGSQSPALPPRLKEMKSQESAAGSKLVLRCETSSEYSSLRFKWFKNGNELNRKNKPQNIKIQKKPGKSELRINKASLADSGEYMCKVISKLGNDSASANITIVESNEIITGMPASTEGAYVSSESPIRISVSTEGANTSSSTSTSTTGTSGTQSVCAGTENKLSSLSDLEQQYRALRKYYENCEVVMGNLEITSIEHNRDLSFLRSVREVTGYVLVALNQFRYLPLENLRIIRGTKLYEDRYALAIFLNYRKDGNFGLQELGLKNLTEILNGGVYVDQNKFLCYADTIHWQDIVRNPWPSNLTLVSTNGSSGCGRCHKSCTGRCWGPTENHCQTLTRTVCAEQCDGRCYGPYVSDCCHRECAGGCSGPKDTDCFACMNFNDSGACVTQCPQTFVYNPTTFQLEHNFNAKYTYGAFCVKKCPHNFVVDSSSCVRACPSSKMEVEENGIKMCKPCTDICPKACDGIGTGSLMSAQTVDSSNIDKFINCTKINGNLIFLVTGIHGDPYNAIEAIDPEKLNVFRTVREITGFLNIQSWPPNMTDFSVFSNLVTIGGRVLYSGLSLLILKQQGITSLQFQSLKEISAGNIYITDNSNLCYYHTINWTTLFSTINQRIVIRDNRKAENCTAEGMVCNHLCSSDGCWGPGPDQCLSCRRFSRGRICIESCNLYDGEFREFENGSICVECDPQCEKMEDGLLTCHGPGPDNCTKCSHFKDGPNCVEKCPDGLQGANSFIFKYADPDRECHPCHPNCTQGCNGPTSHDCIYYPWTGHSTLPQHAKN
- % of Patients Responding, <PR (All Patients): 5.3%
- % of Patients Responding, CR (All Patients): 59.7%
- % of Patients Responding, PR (All Patients): 11.3%
- No. of patients, Response <PR (All Patients (400 treated)): 21
- No. of patients, Response CR (All Patients (400 treated)): 239
- No. of patients, Response PR (All Patients (400 treated)): 45
- % of Patients Responding, CR + PR + <PR (Brain glioma/astrocytoma): 61%
- % of Patients Responding, CR + PR + <PR (Breast adenocarcinoma): 85%
- % of Patients Responding, CR + PR + <PR (Gastrointestinal carcinoma): 77%
- % of Patients Responding, CR + PR + <PR (Ovarian carcinoma): 82%
- overall response rate (all tumors): about 76%
- patients with objective clinical responses (all tumors): Three hundred and five
- CBC, renal and liver functions tests after treatments (human, in vivo): do not change significantly
- average duration of responses (human, in vivo): 24 months
- incidence of side effects: bloody nose (human, in vivo): 1 % of total treatments
- incidence of side effects: blurred vision (human, in vivo): < 1 % of total treatments
- incidence of side effects: chills (human, in vivo): 10 % of total treatments
- incidence of side effects: cramps (human, in vivo): < 1 % of total treatments
- incidence of side effects: diarrhea (human, in vivo): 1 % of total treatments
- incidence of side effects: dizziness (human, in vivo): < 1 % of total treatments
- incidence of side effects: fatigue (human, in vivo): < 1 % of total treatments
- incidence of side effects: feeling faint (human, in vivo): < 1 % of total treatments
- incidence of side effects: fever (human, in vivo): 10 % of total treatments
- incidence of side effects: flushing (human, in vivo): 1 % of total treatments
- incidence of side effects: gastritis (human, in vivo): < 1 % of total treatments
- incidence of side effects: headache (human, in vivo): 3 % of total treatments
- incidence of side effects: hypertension (human, in vivo): 2 % of total treatments
- incidence of side effects: hypotension (human, in vivo): 2 % of total treatments
- incidence of side effects: itching/hives (human, in vivo): 1 % of total treatments
- incidence of side effects: joint pain (human, in vivo): 2 % of total treatments
- incidence of side effects: nausea (human, in vivo): 5 % of total treatments
- incidence of side effects: pain (human, in vivo): 5 % of total treatments
- incidence of side effects: rash (human, in vivo): 2 % of total treatments
- incidence of side effects: redness on hand (human, in vivo): < 1 % of total treatments
- incidence of side effects: respiratory (human, in vivo): 3 % of total treatments
- incidence of side effects: tachycardia (human, in vivo): 2 % of total treatments
- incidence of side effects: twitching (human, in vivo): < 1 % of total treatments
- incidence of side effects: vomiting (human, in vivo): 2 % of total treatments
- time at which objective remissions are evident (human, in vivo): after four weeks of therapy
- toxicity (human, in vivo): mild short-lived fever, fatigue and anorexia not requiring treatment
- positive tumor responses (patients with breast, ovarian and gastrointestinal tumors): 77-85%
